Experimental data published in US20250076311A1 (Chugai, published 2025).
Numbering of substitutions follows the chain as printed. Values belong to the binder of their own block, whether it stands above or below them.

Experiments:
[1] = target: T1, cynomolgus monkey FcγRIIIaS extracellular domain with C-terminal His-tag (cynomolgus monkey, UniProt A3RFZ7 21-206 (rhesus entry)); assay: SPR (BIACORE); KD of SG1 / KD of variant
T1 construct: also called cyno FcgRIIIaS; cynoFcγRIIIaS; not shown: His-tag added to the C-terminus
Experimental: (§1) The kinetic analysis of interactions between these antibodies and FcγR was carried out using BIACORE® T200 or BIACORE® 4000 (GE Healthcare). HBS-EP+ (GE Healthcare) was used as the running buffer, and the measurement temperature was set to 25° C. […] After the measurement, the antibody captured on the chip was washed off by allowing reaction with 10 mM glycine-HCl, pH1.5 and 25 mM NaOH so that the chip was regenerated and used repeatedly. The sensorgrams obtained as measurement results were analyzed by the 1:1 Langmuir binding model using the BIACORE® Evaluation Software to calculate the binding rate constant ka (L/mol/s) and dissociation rate constant kd (1/s), and the dissociation constant KD (mol/L) was calculated from these values. […] Regarding such interactions, KD values were calculated using the following 1:1 binding model described in BIACORE® T100 Software Handbook BR1006-48 Edition AE.

[2] = target: T1, cynomolgus monkey FcγRIIIaS …; assay: SPR (BIACORE), antibody captured, FcgR analyte
[3] = target: T2, human FcγRIIaH extracellular domain with C-terminal His-tag (human, UniProt P12318 34-217); assay: SPR (BIACORE), antibody captured, FcgR analyte
T2 construct: also called human FcgRIIaH; FcγRIIa type H; not shown: His-tag added to the C-terminus
T2 sequence: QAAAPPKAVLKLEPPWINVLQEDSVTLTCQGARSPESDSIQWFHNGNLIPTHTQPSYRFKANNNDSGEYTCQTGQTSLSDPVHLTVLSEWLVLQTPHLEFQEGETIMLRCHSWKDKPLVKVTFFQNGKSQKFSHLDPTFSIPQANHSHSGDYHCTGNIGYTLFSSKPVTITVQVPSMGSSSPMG

[4] = target: T3, human FcγRIIIaV extracellular domain with C-terminal His-tag (human, UniProt P08637 17-208); assay: SPR (BIACORE), antibody captured, FcgR analyte
T3 construct: also called human FcgRIIIaV; not shown: His-tag added to the C-terminus
T3 sequence (P08637 17-208 F176V): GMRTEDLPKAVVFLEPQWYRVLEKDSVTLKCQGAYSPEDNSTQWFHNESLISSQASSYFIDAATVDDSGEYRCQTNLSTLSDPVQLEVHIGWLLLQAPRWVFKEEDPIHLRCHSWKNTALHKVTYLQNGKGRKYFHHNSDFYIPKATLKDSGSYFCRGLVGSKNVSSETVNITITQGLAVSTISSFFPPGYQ

[5] = target: T4, human FcγRIIIaV extracellular domain with C-terminal His-tag (human, UniProt P08637 17-208); assay: SPR Biacore, antibody captured, FcgR analyte
T4 construct: also called human FcgRIIIaV; not shown: His-tag added to C-terminus
T4 sequence (P08637 17-208 F176V): as above

[6] = target: T5, cynomolgus monkey FcγRIIIaS extracellular domain with C-terminal His-tag (cynomolgus monkey, UniProt A3RFZ7 21-206 (rhesus entry)); assay: SPR Biacore, antibody captured, FcgR analyte
T5 construct: also called cyno FcgRIIIaS; cynoFcγRIIIaS; not shown: His-tag added to C-terminus

[7] = target: T6, cynomolgus monkey FcγRIIIaS extracellular domain, His-tagged (cynomolgus monkey, UniProt Q8SPW2 21-206 at identity 1.00)); assay: SPR (BIACORE), antibody captured, FcγR analyte, 25 C; KD of SG1 divided by KD of variant
T6 construct: also called cyno FcγRIIIaS; cynoFcgRIIIaS
T6 chain: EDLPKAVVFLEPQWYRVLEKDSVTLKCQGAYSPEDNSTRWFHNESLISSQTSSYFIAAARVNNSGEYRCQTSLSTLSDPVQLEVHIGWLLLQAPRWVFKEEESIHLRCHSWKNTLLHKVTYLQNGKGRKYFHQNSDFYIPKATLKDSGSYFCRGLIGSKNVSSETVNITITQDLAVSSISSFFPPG
Experimental: as §1

[8] = target: T7, human FcγRIIb extracellular domain with C-terminal His-tag (human, UniProt P31994 43-217); assay: SPR (BIACORE), antibody captured, FcgR analyte
T7 construct: also called human FcgRIIb; not shown: His-tag added to the C-terminus
T7 sequence: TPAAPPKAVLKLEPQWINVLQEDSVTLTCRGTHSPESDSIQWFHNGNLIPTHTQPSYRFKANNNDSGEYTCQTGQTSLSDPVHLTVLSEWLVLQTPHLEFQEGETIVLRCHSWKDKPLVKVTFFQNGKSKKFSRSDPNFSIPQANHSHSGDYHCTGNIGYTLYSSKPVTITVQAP

[9] = target: T8, human FcγRIIaR extracellular domain with C-terminal His-tag (human, UniProt P12318 34-217); assay: SPR (BIACORE), antibody captured, FcgR analyte
T8 construct: also called human FcgRIIaR; FcγRIIa type R; not shown: His-tag added to the C-terminus
T8 chain: T2 sequence with H134R

[10] = target: T9, cynomolgus monkey FcγRIIa3 extracellular domain with C-terminal His-tag (cynomolgus monkey); assay: SPR (BIACORE), antibody captured, FcgR analyte
T9 construct: also called cyno FcgRIIa3; cynoFcγRIIa3; not shown: His-tag added to the C-terminus
T9 chain: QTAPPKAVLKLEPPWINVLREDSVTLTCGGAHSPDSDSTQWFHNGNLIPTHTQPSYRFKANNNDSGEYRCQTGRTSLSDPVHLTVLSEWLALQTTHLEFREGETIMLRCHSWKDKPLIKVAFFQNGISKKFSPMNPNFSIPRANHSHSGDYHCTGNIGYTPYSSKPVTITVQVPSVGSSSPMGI

KD fold (SG1 = 1) [1]: 0.17 fold | Kd [2]: 2100 nM | Kd [3]: 2200 nM | Kd [4]: 7.4 µM
B1: M103205H795-MY051/M103202L889-SK1 (antibody, human IgG1, kappa, name in EU numbering)
heavy: QVTLKESGPVLVKPTETLTLTCTVSGIDLSHDDISWVRQAPGKGLEWVGIISYAGSTYYASWAKGRLTISKDTSKNQVVLTMTNMDPVDTATYYCARGVPAYSHGGDLWGQGTLVTVSSASTKGPSVFPLAPSSKSTSGGTAALGCLVKDYFPEPVTVSWNSGALTSGVHTFPAVLQSSGLYSLSSVVTVPSSSLGTQTYICNVNHKPSNTKVDKKVEPKSCDKTHTCPPCPAPELLNGPSVFLFPPKPKDTLMISRTPEVTCVVVDVSEEDGEVKFNWYVDGVEVHNAKTKPREEQYNSTYRVVSVLTVLHQDWLNGKEYKCKVSNKALPAPIEKTISKAKGQPREPQVYTLPPSREEMTKNQVSLTCLVKGFYPSDIAVEWESNGQPENNYKTTPPVLDSDGSFFLYSKLTVDKSRWQQGNVFSCSVMHEALHNHYTQKSLSLSP
light: DIVMTQSPATLSLSPGERATLSCTSSQSVYHANWLSWFQQKPGQPPKLLIYWASTLAYGVPSRFSGSGSGTDFTLTISSLQPEDAATYYCAGGYGGGRYAFGQGTKVEIKRTVAAPSVFIFPPSDEQLKSGTASVVCLLNNFYPREAKVQWKVDNALQSGNSQESVTEQDSKDSTYSLSSTLTLSKADYEKHKVYACEVTHQGLSSPVTKSFNRGEC
notes: Fc variant of MS1032LO06-SG1; positions in EU numbering

KD fold (SG1 = 1) [5]: 0.09 fold
B2: M103205H795-MY209/M103202L889-SK1 (antibody, human IgG1, kappa, name in EU numbering)
heavy: B1 heavy with E270D, G273P, Q297L, K328T, A332K
light: B1 light
notes: substitutions in EU numbering, introduced into M103205H795-SG1

KD fold (SG1 = 1) [6]: 0.08 fold | KD fold (SG1 = 1) [5]: 0.09 fold
B3: M103205H795-MY200/M103202L889-SK1 (antibody)
heavy: B1 heavy with S241V, G273P, A332K
light: B1 light

KD fold (SG1 = 1) [7]: 0.3 fold
B4: M103205H795-MY447/M103202L889-SK1 (antibody, human IgG1, kappa, name in EU numbering)
heavy: B1 heavy with P234I, N238T, E270D, G273P, A332K
light: B1 light

KD fold (SG1 = 1) [7]: 0.2 fold
B5: M103205H795-MY451/M103202L889-SK1 (antibody, human IgG1, kappa, name in EU numbering)
heavy: B1 heavy with P234N, N238T, E270D, G273P, A332K
light: B1 light

Kd [8]: 1100 nM | Kd [2]: 28 nM | Kd [9]: 2100 nM | Kd [3]: 830 nM | Kd [10]: 6.7 µM
B6: M103205H795-MY208/M103202L889-SK1 (antibody, human IgG1, kappa, name in EU numbering)
heavy: B1 heavy with E270D, G273P, Q297L
light: B1 light
notes: as for B1

Kd [8]: 1500 nM | Kd [2]: 4100 nM | Kd [3]: 1300 nM | Kd [10]: 6.9 µM
B7: M103205H795-MY207/M103202L889-SK1 (antibody, human IgG1, kappa, name in EU numbering)
heavy: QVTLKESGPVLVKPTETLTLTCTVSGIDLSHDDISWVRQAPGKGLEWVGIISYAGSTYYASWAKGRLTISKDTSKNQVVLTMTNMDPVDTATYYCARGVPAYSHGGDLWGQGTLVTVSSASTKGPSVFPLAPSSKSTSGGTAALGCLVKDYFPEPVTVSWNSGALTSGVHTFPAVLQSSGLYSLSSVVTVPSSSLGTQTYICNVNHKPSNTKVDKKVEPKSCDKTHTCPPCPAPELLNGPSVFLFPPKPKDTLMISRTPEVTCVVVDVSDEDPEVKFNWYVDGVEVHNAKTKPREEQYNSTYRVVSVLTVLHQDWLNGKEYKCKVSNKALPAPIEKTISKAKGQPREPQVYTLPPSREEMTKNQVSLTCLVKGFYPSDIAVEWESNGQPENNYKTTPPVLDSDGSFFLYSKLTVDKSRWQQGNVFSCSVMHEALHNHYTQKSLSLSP
light: B1 light
notes: as for B1

KD fold (SG1 = 1) [1]: 0.42 fold | Kd [8]: 320 nM | Kd [2]: 850 nM | Kd [10]: 7.6 µM
B8: M103205H795-MY115/M103202L889-SK1 (antibody, human IgG1, kappa, name in EU numbering)
heavy: B1 heavy with S269A, G273P, P398M
light: B1 light
notes: as for B1

KD fold (SG1 = 1) [6]: 0.1 fold | Kd [6]: 3.6 µM | KD fold (SG1 = 1) [5]: 0.17 fold
B9: M103205H795-MY182/M103202L889-SK1 (antibody, human IgG1, kappa, name in EU numbering)
heavy: B1 heavy with G273P, P398V
light: B1 light
notes: EU numbering

Kd [8]: 1500 nM | Kd [2]: 3500 nM | Kd [4]: 11 µM
B10: M103205H795-MY204/M103202L889-SK1 (antibody, human IgG1, kappa, name in EU numbering)
heavy: B1 heavy with S241V, G273P, Q297L, A332K
light: B1 light
notes: as for B1
